According to patent publication US20230212319A1, “NOVEL ANTIGEN BINDING DOMAINS AND SYNTHETIC ANTIGEN RECEPTORS INCORPORATING THE SAME” (University of Southern California, priority 2020, published 2023):

B1: 22005 (protein)
chain: MALPVTALLLPLALLLHAARPLEGKPIPNPLLGLDSTGSGEDLKNVFPPEVAVFEPSKAEIAHTQKATLVCLATGFYPDHVELSWWVNGKEVHSGVCTDPQPLKEQPALNDSRYCLSSRLRVSATFWQNPRNHFRCQVQFYGLSENDEWTQDRAKPVTQIVSAEAWGRADCGITSASYHQGVLSATILYEILLGKATLYAVLVSALVLMAMVKRKDSRGRAKRSGSGATNFSLLKQAGDVEENPGPTSTMALPVTALLLPLALLLHAARPEVQLVESGGGLVQPGGSLRLSCAASGFNIKDTCIGWVRRAPGKEEELVAKICKYSGHTRYADSVKGRFTISADTSKNTAYLQMNSLRAEDTAVYYCAAVSVRDGHYNYWGQGTTVTVSSTREQKLISEEDGSGIQNPDPAVYQLRDSKSSDKSVCLFTDFDSQTNVSQSKDSDVYITDKCVLDMRSMDFKSNSAVAWSNKSDFACANAFNNSIIPEDTFFPSSDVPCDVKLVEKSFETDTNLNFQNLSVIGFRILLLKVAGFNLLMTLRLWSSRAKRSGSGVKQTLNFDLLKLAGDVESNPGPSRGHMTEYKPTVRLATRDDVPRAVRTLAAAFADYPATRHTVDPDRHIERVTELQELFLTRVGLDIGKVWVADDGAAVAVWTTPESVEAGAVFAEIGPRMAELSGSRLAAQQQMEGLLAPHRPKEPAWFLATVGVSPDHQGKGLGSAVVLPGVEAAERAGVPAFLETSAPRNLPFYERLGFTVTADVEVPEGPRTWCMTRKPGA
B2: 22093 (protein)
chain: MALPVTALLLPLALLLHAARPEVQLVESGGGLVQPGGSLRLSCAASGFNIKDTCIGWVRRAPGKEEELVAKICKYSGHTRYADSVKGRFTISADTSKNTAYLQMNSLRAEDTAVYYCAAVSVRDGHYNYWGQGTTVTVSSLEGKPIPNPLLGLDSTGSGEDLKNVFPPEVAVFEPSKAEIAHTQKATLVCLATGFYPDHVELSWWVNGKEVHSGVCTDPQPLKEQPALNDSRYCLSSRLRVSATFWQNPRNHFRCQVQFYGLSENDEWTQDRAKPVTQIVSAEAWGRADCGITSASYHQGVLSATILYEILLGKATLYAVLVSALVLMAMVKRKDSRGRAKRSGSGATNFSLLKQAGDVEENPGPTSTMALPVTALLLPLALLLHAARPDIQMTQSPSSLSASVGDRVTITCKASDHINNWLAWYQQKPGQAPKLLIYGATTLETGVPSRFSGSGSGTDYTLTISSLQPEDFATYYCQQSWNTPWTFGQGTKLEIKRGGGGSGGGGSGGGGSQVQLQQPGAELVKPGASVKMSCKASGYAFSSYWINWMKQKPGQGLEWIGQIYPGDGDTNYNGKFKGRATLTADTSSSTAYMQLSSLTSEDSAVYFCARSITTVVGCAMDYWGQGTSVTVSSTREQKLISEEDGSGIQNPDPAVYQLRDSKSSDKSVCLFTDFDSQTNVSQSKDSDVYITDKCVLDMRSMDFKSNSAVAWSNKSDFACANAFNNSIIPEDTFFPSSDVPCDVKLVEKSFETDTNLNFQNLSVIGFRILLLKVAGFNLLMTLRLWSSRAKRSGSGVKQTLNFDLLKLAGDVESNPGPSRGHMTEYKPTVRLATRDDVPRAVRTLAAAFADYPATRHTVDPDRHIERVTELQELFLTRVGLDIGKVWVADDGAAVAVWTTPESVEAGAVFAEIGPRMAELSGSRLAAQQQMEGLLAPHRPKEPAWFLATVGVSPDHQGKGLGSAVVLPGVEAAERAGVPAFLETSAPRNLPFYERLGFTVTADVEVPEGPRTWCMTRKPGA
B3: 22118 (protein)
chain: MALPVTALLLPLALLLHAARPEVQLVESGGGLVQPGGSLRLSCTFSGGTFSSYTMGWFRQAPGKEREFVAEVRWGGVTTYSNSLKDRFSISEDSVKNAVYLQMNSLKPEDTAVYYCAAVRQMYMTVVPDYWGQGTLVTVSSSGGGGSDIQMTQSPSSLSASVGDRVTITCKASDHINNWLAWYQQKPGKAPKLLIYGATTLETGVPSRFSGSGSGTDFTLTISSLQPEDFATYYCQQSWNTPWTFGQGTKVEIKRLEDLKNVFPPEVAVFEPSEAEISHTQKATLVCLATGFYPDHVELSWWVNGKEVHSGVCTDPQPLKEQPALNDSRYCLSSRLRVSATFWQNPRNHFRCQVQFYGLSENDEWTQDRAKPVTQIVSAEAWGRADCGFTSESYQQGVLSATILYEILLGKATLYAVLVSALVLMAMVKRKDSRGRAKRSGSGATNFSLLKQAGDVEENPGPTSMDWIWRILFLVGAATGAHSFEVQLVESGGGLVQPGGSLRLSCAASGYAFSSYWVNWVRQAPGKGLEWVAQIYPGDGDTNYNGKFKGRFTISRDNSKNTLYLQMNSLRAEDTAVYYCARSITTVVGCAMDYWGQGTLVTVSSTRIQNPDPAVYQLRDSKSSDKSVCLFTDFDSQTNVSQSKDSDVYITDKCVLDMRSMDFKSNSAVAWSNKSDFACANAFNNSIIPEDTFFPSPESSCDVKLVEKSFETDTNLNFQNLSVIGFRILLLKVAGFNLLMTLRLWSSRAKRSGSGVKQTLNFDLLKLAGDVESNPGPSRGHMTEYKPTVRLATRDDVPRAVRTLAAAFADYPATRHTVDPDRHIERVTELQELFLTRVGLDIGKVWVADDGAAVAVWTTPESVEAGAVFAEIGPRMAELSGSRLAAQQQMEGLLAPHRPKEPAWFLATVGVSPDHQGKGLGSAVVLPGVEAAERAGVPAFLETSAPRNLPFYERLGFTVTADVEVPEGPRTWCMTRKPGA
B4: 22007 (protein)
chain: MALPVTALLLPLALLLHAARPQLQLQESGPGLVKPSETLSLTCTVSGDSISSGDYYWGWIRQPPGKGLEWIGHIYYSGVTYYNPSLKSRVTISVDTSRNQFSLKLSSVTAADTAVYYCTREDSSNWRSRGQGTLVTVSSLEDLKNVFPPEVAVFEPSEAEISHTQKATLVCLATGFYPDHVELSWWVNGKEVHSGVCTDPQPLKEQPALNDSRYCLSSRLRVSATFWQNPRNHFRCQVQFYGLSENDEWTQDRAKPVTQIVSAEAWGRADCGFTSESYQQGVLSATILYEILLGKATLYAVLVSALVLMAMVKRKDSRGRAKRSGSGATNFSLLKQAGDVEENPGPTSMDWIWRILFLVGAATGAHSFEVQLVESGGGLVQPGGSLRLSCAASGFNIKDTCIGWVRRAPGKEEELVADICPYKGSTRYADSVKGRFTISADTSKNTAYLQMNSLRAEDTAVYYCAIVSARDGYYNYWGQGTTVTVSSTRIQNPDPAVYQLRDSKSSDKSVCLFTDFDSQTNVSQSKDSDVYITDKCVLDMRSMDFKSNSAVAWSNKSDFACANAFNNSIIPEDTFFPSPESSCDVKLVEKSFETDTNLNFQNLSVIGFRILLLKVAGFNLLMTLRLWSSRAKRSGSGVKQTLNFDLLKLAGDVESNPGPSRGHMTEYKPTVRLATRDDVPRAVRTLAAAFADYPATRHTVDPDRHIERVTELQELFLTRVGLDIGKVWVADDGAAVAVWTTPESVEAGAVFAEIGPRMAELSGSRLAAQQQMEGLLAPHRPKEPAWFLATVGVSPDHQGKGLGSAVVLPGVEAAERAGVPAFLETSAPRNLPFYERLGFTVTADVEVPEGPRTWCMTRKPGA

Columns and labels:
Format in all cases: cell-based
LoVo = experiment: JNG NFAT-GFP assay, co-culture with LoVo cells
RAJI cells = experiment: JNG assay, co-culture with RAJI cells; details: JNG cells expressing construct, co-culture with Raji
Summary of the method: (§1)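 Jurkat-NFAT-GFP (JNG) cells stably expressing SAR constructs via lentiviral transduction and puromycin/blasticidin selection were cocultured with target cells at E:T ~1:2 for ~4–18 h. NFAT-driven GFP was measured by FACS versus parental JNG cells; scores +/- to 5+ denote ~5–50% GFP-positive cells.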

Nalm6 cells = experiment: JNG assay, co-culture with Nalm6 cells; details: co-culture with Nalm6
Summary of the method: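 Values are semi-quantitative grades of GFP induction, each step approximating 10% more GFP+ cells (5+ ≈50%) above parental reporter cells, measured by FACS after SAR-transduced JNG cells were cultured with targets at ~1:2 E:T for ~4–18 h.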

RAJI-CD19-KO cells = experiment: JNG assay, co-culture with RAJI-CD19-KO cells; details: co-culture with Raji-CD19-KO
Summary of the method: as §1

RS;411 = experiment: JNG assay, co-culture with RS;411 cells; details: co-culture with RS411
Summary of the method: as §1

DAUDI = experiment: JNG assay, co-culture with DAUDI cells
Description: Cellular supernatant is collected and assayed for the induction of cytokines (e.g., IL2).
JNG (Jurkat cells expressing EGFP under an NFAT promoter) were infected with lentiviral vectors encoding different single chain and multi-chain SARs by spinfection in the presence of 8 µg/ml of Polybrene® (Sigma, Catalog no. H9268). The Jurkat-NFAT-GFP cells are engineered in such a way that the IL-2 promoter, which carries NFAT binding sites, is cloned upstream of the GFP gene. These cells have been used to study signaling via TCR and CAR. The different SARs were stably expressed in Jurkat NFAT-GFP cells by lentiviral mediated gene transfer, followed by selection with puromycin or blasticidin. No drug selection was used in case the construct lacked an antibiotic resistance gene. The SAR-expressing Jurkat-NFAT-GFP cells were cocultured with the target cells at E:T ratio of approximately 1:2 for approximately 4 hours to 18 hours. When the interaction between SIRs and their target antigen results in activation of the NFAT pathway, GFP expression is induced. […] GFP expression was monitored by FACS analysis. The Jurkat-NFAT-GFP (parental) cells were used as control. The structure of different constructs can be determined based on their names. […] The sequence of the other constructs in the table can be similarly determined from their names and by referring to the different Tables of this disclosure that provide the names and SEQ ID NO of the different modules. Alternatively, the composition and modular architecture of the different SAR constructs can be determined from their sequences by bioinformatics tools, including using nucleic acid and amino acids homology searches. A SAR is considered positive in the assay in case the SAR expressing Jurkat-NFAT-GFP cells show greater % GFP positive cells when cultured with the target cell line as compared to parental Jurkat-NFAT-GFP cells. […] In general, the number +/-, +, 2+, 3+, 4+, 5+ refer to approximately 5%, 10%, 20%, 30%, 40% and 50% GFP positive cells. […]

Molecule	NFAT-GFP ASSAY: LoVo (LoVo)	NFAT-GFP ASSAY: Raji (RAJI cells)	NFAT-GFP ASSAY: Nalm6 (Nalm6 cells)	NFAT-GFP ASSAY: Raji-CD19-KO (RAJI-CD19-KO cells)	NFAT-GFP ASSAY: RS411 (RS;411)	NFAT-GFP ASSAY: Daudi (DAUDI)
B1	+/- (refer to approximately 5%, 10%, 20%, 30%, 40% and 50% GFP positive cells)					
B2	+/- (refer to approximately 5%, 10%, 20%, 30%, 40% and 50% GFP positive cells)	2+ (refer to approximately 5%, 10%, 20%, 30%, 40% and 50% GFP positive cells)	+ (refer to approximately 5%, 10%, 20%, 30%, 40% and 50% GFP positive cells)			
B3		3+ (refer to approximately 5%, 10%, 20%, 30%, 40% and 50% GFP positive cells)	3+ (refer to approximately 5%, 10%, 20%, 30%, 40% and 50% GFP positive cells)	2+ (refer to approximately 5%, 10%, 20%, 30%, 40% and 50% GFP positive cells)	3+ (refer to approximately 5%, 10%, 20%, 30%, 40% and 50% GFP positive cells)	3+ (refer to approximately 5%, 10%, 20%, 30%, 40% and 50% GFP positive cells)
B4	+/- (refer to approximately 5%, 10%, 20%, 30%, 40% and 50% GFP positive cells)	+/- (refer to approximately 5%, 10%, 20%, 30%, 40% and 50% GFP positive cells)				
